Laboratory results taken from PMC10855774, “Role of Spexin in White Adipose Tissue Thermogenesis under Basal and Cold-Stimulated Conditions” (International Journal of Molecular Sciences, 2024).

Columns and labels:
[1] = Daily caloric intake and body weight of SPX-treated mice at RT or cold; type: in vivo; details: for body weight change: C × S p < 0.05
Experimental: (§1) Normal adult male C57BL/6 mice (four months of age) were kept in a temperature-controlled environment (20–22 °C and a fixed 12 h light/12 h dark cycle; lights on at 07:00 h) and fed ad libitum with Purina commercial rat/mouse chow (Ganave, Buenos Aires, Argentina, L0723/1). Mice were injected with SPX or PBS (29 µg/kg/day, Tocris, Bristol, UK) for ten days (the SPX and CTR groups, respectively). On the third day of the protocol, each group was subdivided into two other groups: one exposed to cold (4 °C, CTR-C and SPX-C, n = 12 mice for each group) and another one housed at RT (CTR and SPX, n = 15 mice for each group) (Figure 1). Food intake and body weight were measured every day. On the experimental day (day 10), the mice were euthanized under non-fasting conditions (08:00 to 09:00 h), and their trunk blood was collected; plasma samples were then frozen (–80 °C) until the metabolite measurement. Inguinal AT (IAT, subcutaneous depot), epididymal AT (EAT, visceral depot), and brown AT (BAT, subcutaneous depot) were aseptically dissected and weighed. These depots were kept at –80 °C for further procedures. Animals were euthanized according to protocols for animal use, in agreement with the NIH guidelines for the care and use of experimental animals. All experiments were approved by our Institutional Animal Care Committee (Approval code: 6NE-2023).

[2] = Adipose tissue depot mass percentage; type: in vivo, mice; details: SPX 29 µg/kg/day ten days, cold (4 °C); SPX-C relative to CTR and CTR-C; C × S p < 0.05
Experimental: as §1

[3] = Plasma glucose and triglyceride levels (commercial kits); type: in vivo, mice; details: SPX 29 µg/kg/day ten days, RT or cold; non-fasting; n = 6–7
Experimental: as §1, with “Animals were euthanized according to protocols for animal use, in agreement with the NIH guidelines for the care and use of experimental animals. All experiments were approved by our Institutional Animal Care Committee (Approval code: 6NE-2023).” left out
Circulating glucose (Glu) and triglyceride (Tg) levels were measured using commercial kits (Wiener Lab., Rosario, Argentina). Plasma SPX was measured using a commercial ELISA kit (SPX: Phoenix pharmaceutical EK-023-81).

[4] = tested on: ucp1; experiment: ucp1 mRNA expression in AT depots (qRT-PCR); type: in vivo, mice
Experimental: as §1
(§2) Total RNA was isolated from cells by the Trizol extraction method (Invitrogen, Life Technology, Waltham, MA, USA) and reverse-transcribed using random primers (250 ng) and RevertAid Reverse Transcriptase (200 U/µL, Thermo Scientific, Waltham, MA, USA). The cDNA (2 μL) was amplified with HOT FIRE Pol EvaGreenqPCR Mix Plus (Solis BioDyne, Tartu, Estonia) containing 0.5 μM of each specific primer, using a Rotor-Gene Q (Qiagen, Hilden, Germany). PCR efficiency was near 1. The expression levels were analyzed for β-actin (βactin, […] gene), Uncoupling Protein 1 (ucp1), proliferator-activated receptor gamma coactivator-1 alpha (pgc1α), cytochrome-c oxidase subunit 8b (cox8b), galanin receptors 2 and 3 (galr2 and galr3, respectively), and Spexin (spx). The designed primers are shown in alphabetical order in Table 1. The relative changes in the expression level of each gene (ΔΔCt) were calculated by the ΔCt method.

[5] = tested on: ucp1; experiment: UCP1 protein expression in EAT and IAT (Western blot); type: in vivo, mice
Experimental: as §1, with “Inguinal AT (IAT, subcutaneous depot), epididymal AT (EAT, visceral depot), and brown AT (BAT, subcutaneous depot) were aseptically dissected and weighed. These depots were kept at –80 °C for further procedures. Animals were euthanized according to protocols for animal use, in agreement with the NIH guidelines for the care and use of experimental animals. All experiments were approved by our Institutional Animal Care Committee (Approval code: 6NE-2023).” left out
For protein analysis by Western blot, IAT and EAT were lysed in a RIPA buffer supplemented with a protease and phosphatase inhibitor cocktail. Protein contents were quantified with the bicinchoninic acid method (Thermo Scientific, Pierce™ BCA Protein Assay Kit). […] Finally, relative protein levels were calculated using Image J Fiji software 1.54f.

[6] = tested on: pgc1α; experiment: pgc1α mRNA expression in AT depots (qRT-PCR); type: in vivo, mice
Experimental: as §1
as §2, with “The cDNA (2 μL) was amplified with HOT FIRE Pol EvaGreenqPCR Mix Plus (Solis BioDyne, Tartu, Estonia) containing 0.5 μM of each specific primer, using a Rotor-Gene Q (Qiagen, Hilden, Germany). PCR efficiency was near 1.” left out, “The designed primers are shown in alphabetical order in Table 1.” left out

[7] = tested on: cox8b; experiment: cox8b mRNA expression in AT depots (qRT-PCR); type: in vivo, mice; details: cold, SPX-C vs. CTR-C, C × S p < 0.001
Experimental: as §1
as §2, with “The cDNA (2 μL) was amplified with HOT FIRE Pol EvaGreenqPCR Mix Plus (Solis BioDyne, Tartu, Estonia) containing 0.5 μM of each specific primer, using a Rotor-Gene Q (Qiagen, Hilden, Germany). PCR efficiency was near 1.” left out, “The designed primers are shown in alphabetical order in Table 1.” left out

[8] = tested on: mitochondrial DNA; experiment: Mitochondrial DNA content quantification (qPCR); type: in vivo, mice
Experimental: as §1, with “Inguinal AT (IAT, subcutaneous depot), epididymal AT (EAT, visceral depot), and brown AT (BAT, subcutaneous depot) were aseptically dissected and weighed. These depots were kept at –80 °C for further procedures. Animals were euthanized according to protocols for animal use, in agreement with the NIH guidelines for the care and use of experimental animals. All experiments were approved by our Institutional Animal Care Committee (Approval code: 6NE-2023).” left out
Tissue from the EAT and IAT depots were homogenized with lysis buffer (40 mM EDTA, 50 mM NaCl, 100 mM Tris, 0.2% SDS) in PBS (2:1) and, for DNA fragmentation, samples were sonicated (38 kHz ± 10% for 5–10 s). […] Finally, the DNA was dissolved in TE buffer and quantified by Nanodrop at 260 nm. […] The relative changes in the DNA mitochondrial content were calculated by 2[2, −ΔΔCt] […]

[9] = tested on: spx; experiment: spx mRNA expression in AT depots (qRT-PCR); type: in vivo, mice
Experimental: as §1
as §2, with “The cDNA (2 μL) was amplified with HOT FIRE Pol EvaGreenqPCR Mix Plus (Solis BioDyne, Tartu, Estonia) containing 0.5 μM of each specific primer, using a Rotor-Gene Q (Qiagen, Hilden, Germany). PCR efficiency was near 1.” left out, “The designed primers are shown in alphabetical order in Table 1.” left out

[10] = tested on: ucp1, pgc1α, and prdm16; details: obese female mice treated with SPX for 50 days; cited from earlier work
Excerpt: (§3) Little is known about the role of SPX in thermogenesis. […] In the liver, results are contradictory. While one study has shown that SPX decreases pgc1α expression both in vivo and in vitro [26], another study has shown the opposite effect. Thus, the aim of this study was to evaluate the role of SPX during WAT thermogenesis under both room temperature (RT) and cold-stimul ...

[11] = tested on: β3-adrenergic receptors; details: obese female mice treated with SPX for 50 days; cited from earlier work
Excerpt: as §3

[12] = cold-stimulated conditions (7 days 4 °C), SPX-C vs. CTR-C p < 0.0001

B1: Spexin (peptide, UniProt Q9BT56 27-116, looked up)
Spexin: APQRLLERRNWTPQAMLYLKGAQGRRFISDQSRRKDLSDRPLPERRSPNPQLLTIPEAATILLASLQKSPEDEEKNFDQTRFLEDSLLNW
modifications: Spexin
notes: novel adipokine, a peptide of 14 amino acids of the galanin family; purchased from Tocris
correlation between initial body weight and body weight loss after SPX treatment ([1]; SPX and SPX-C mice, basal and cold-stimulated conditions, Pearson correlation, p < 0.01): significant positive correlation
caloric intake ([1]; male C57BL/6 mice, SPX 29 µg/kg/day for ten days, RT or cold (4 °C) from day 3, vs. CTR, repeated measures ANOVA, n = 6–9): no differences were observed due to the SPX treatment
body weight change ([1]; male C57BL/6 mice, SPX 29 µg/kg/day for ten days, basal conditions (RT), SPX vs. CTR): lost body weight vs. CTR ones
body weight change ([1]; male C57BL/6 mice, SPX 29 µg/kg/day for ten days, cold (4 °C) from day 3, SPX-C vs. CTR-C): lost less weight than their CTR-C counterparts
BAT mass percentage [2]: intermediate value
plasma Tg levels [3]: did not change
plasma glucose levels [3]: did not change
ucp1 mRNA expression in BAT ([4]; RT and cold, C p < 0.001, Supplementary Figure S2a): increased under cold exposure despite the SPX treatment
ucp1 mRNA expression in IAT and EAT ([4]; RT, SPX vs. CTR): SPX inhibition was also significant, but only when a t-test was performed
ucp1 mRNA expression in EAT [4, 12]: ucp1 inhibition
ucp1 mRNA expression in IAT [4, 12]: ucp1 inhibition
UCP1 protein levels in EAT (Western blot) ([5]; basal and cold conditions, p < 0.05, n = 4–6): reduced the UCP1 protein levels at both basal and cold conditions
UCP1 protein levels in IAT (Western blot) ([5]; cold, SPX-C intermediate between CTR and CTR-C, C × S p < 0.05): partial decrease in UCP1 levels
pgc1α mRNA expression in BAT ([6]; RT and cold, Supplementary Figure S2b): no changes were observed
pgc1α mRNA expression in EAT ([6]; cold conditions, C p < 0.0001): increased in EAT for both the control and treated groups
pgc1α mRNA expression in IAT ([6]; cold, SPX-C vs. CTR-C, p < 0.001): inhibited due to SPX in cold conditions
cox8b mRNA expression in EAT [7]: inhibitory effect of SPX under cold conditions
cox8b mRNA expression in IAT [7]: inhibitory effect of SPX under cold conditions
cox8b mRNA expression in BAT ([7]; Supplementary Figure S2c): inhibitory effect of SPX under cold conditions
mitDNA content in EAT ([8]; RT and cold): no changes
mitDNA content in IAT ([8]; cold, SPX-C intermediate between CTR and CTR-C, C × S p < 0.01): partial inhibition, although no significant differences were found
spx mRNA expression in EAT ([9]; RT and cold): No changes
spx mRNA expression in BAT ([9]; RT and cold, Supplementary Figure S3): No changes
spx mRNA expression in IAT ([9]; cold conditions, C × S p < 0.001): lower spx expression than CTR mice
ucp1, pgc1α, and prdm16 expressions in BAT [10]: decreased
immunodetection of β3-adrenergic receptors in gonadal WAT [11]: lower immunodetection
